Source: the nanobody polyreactivity screen of Harvey et al. (2022)

Assay: yeast display, Sf9 membrane polyspecificity reagent, FACS + sequencing; frameworks hold sequencing errors
Method in brief: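 Nanobodies came from a synthetic yeast display library in Saccharomyces cerevisiae BJ5465, induced with galactose for 36–48 hours and stained for 1 hour at 4 °C with 10% biotinylated, detergent-solubilized Sf9 membrane reagent. Cells were enriched on streptavidin microbeads and then FACS-sorted, with low and high (top ~1%) gates set on anti-HA fluorescence for expression and streptavidin fluorescence for reagent binding. Each polyreactivity label reflects the gate a clone came from. Genes were amplified by colony PCR, sequenced by MiSeq 2 × 250 and filtered by CDR length.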

Row | Sequence | polyreactivity (PSR sort gate)
1 | QVQLVESGGGLVQAGGSLRLSCAASGITFDGYAMGWYRQAPGKERELVAAITYSGGRTYYADSVKGRFTISRDNAKNTVYLQMNSLKPEDTAVYYCAVVSRRLYDYDYWGQGTQVTVSS | high polyreactivity
2 | QVQLVESGGGLVQAGGSLRLSCAASGITFDLYDMGWYRQAPGKERDFVAAITDADSTYYADSVKGRFTISRDNAKNTVYLQMNSLKPEDTAVYYCAADFFYSVYSGHYDYWGQGTQVTVSS | low polyreactivity
3 | QVQLVESGGGLVQAGGSLRLSCAASGITFDNYAMGWYIQAPGKERELVAAITSGDGTYYADSVKWRFTISRDNAKITVYLQMNSLKPEDTAVYACAVQGSRTENYDWYYYGGQGTQVTVSS | low polyreactivity
4 | QVQLVESGGGLVQAGGSLRLSCAASGITFDRYAMGWYRQAPGKERELVAAITTRGTRTYADSVKGRFTISRDNAKNTVYLQMNSLKPEDTAVYYCAATSYRLTYAWPYYYWGQGTQVTVSS | high polyreactivity
5 | QVQLVESGGGLVQAGGSLRLSCAASGITFDTYAMGWYRQAPGKERELVAAISKSGGSTYYADSVKGRFTISRDNAKNTVYLQMNSLKPEDTAVYYCAKDAGSRTVREFGYWGQGTQVTVSS | high polyreactivity
6 | QVQLVESGGGLVQAGGSLRLSCAASGITFDVYAMGWYRQAPGKERELVAAISSVGGTYYADSVKGRFTISRDNAKNTVYFQMNSLKPEDTAVYYCNTDGYVGSIRSGLYIYEYWGQGTQVTVSS | low polyreactivity
7 | QVQLVESGGGLVQAGGSLRLSCAASGITFDVYAMGWYRQAPGKERELVAAISSVGGTYYADSVKGRFTISRDNAKNTVYLQMNSLKPEDTAVYYCNTDGYVGSIRSGLYIYDYWGQGTQVTVSS | low polyreactivity
8 | QVQLVESGGGLVQAGGSLRLSCAASGITFDWNAMGWYRQAPGKERELVAAISSGASTYYADSVKGRFTISRDNAKNTVYLQMNSLKPEDTAVYYCAKRHAINIHAVGPYYTSMDYWGQGTQVTVSS | low polyreactivity
9 | QVQLVESGGGLVQAGGSLRLSCAASGITFDYYGMGWYRQAPGKERALCASITSGGSTNYADSVKGRFTISRDNAKNSVYLQMNSLKPEDTAVYYCAADGYGGYYRGTYYTVYFWGQGTQVTVSS | low polyreactivity
10 | QVQLVESGGGLVQAGGSLRLSCAASGITFDYYPMGWYRQEPGKERELVAVITWSVGSTKYADSVKGRFTISRDNAKNTVYLLMNRLKPEETAVYNCNPRPPRWVRSMDYWGHGTQVTVSS | high polyreactivity
11 | QVQLVESGGGLVQAGGSLRLSCAASGITFEGYAMGWYRQAPRKERELVAAITGSGSTTYYADSVKGRFTISRDNAKNTVYLQMNSLKPEDTAVYYCAADVSYKLYWGQVTQVTVSS | low polyreactivity
12 | QVQLVESGGGLVQAGGSLRLSCAASGITFELYAMGLYIQAPGKERELVAAISSNGGITFYADSVKGRFTISRDNAKNTVYLQMNSLKTEDTAVYYCAARGYIRGPSKLDYWGQGTQVTVSS | high polyreactivity
13 | QVQLVESGGGLVQAGGSLRLSCAASGITFEVYAKGWYRQAPGKERELVAVITSVGSTNYADSVKGRFTISRDNAKNTVYLQMNSLKPEDTAVYYCAAEKWTVRRFNPYTYYRYDYWGQGTQVTVSS | low polyreactivity
14 | QVQLVESGGGLVQAGGSLRLSCAASGITFEYYDMGWYRQAPGKERELVAAISWSTDITYADSVKGRFTISRDNAKNTVYLQMNSLKPEDTAVYYCAASTYEYTSYDYWGHGTQVTVSS | low polyreactivity
15 | QVQLVESGGGLVQAGGSLRLSCAASGITFFGYAMGWYRQAPGKERELVAAISTRGGSTYYADSVKGRFTISRDNAKNTVYLQMNSLKPEDTAFYYCNKEYYHKWAPTYDYWGQGTQVTVSS | low polyreactivity
16 | QVQLVESGGGLVQAGGSLRLSCAASGITFGANAMGWYRQAPGKERELVADITWSGGDTYYADSVKGRFTISRDTAKNTVYLQLHSLKPEDTAVYYCAVDTYIYTNRRYTKFDYWGQGTQVTVSS | low polyreactivity
17 | QVQLVESGGGLVQAGGSLRLSCAASGITFGDYAMGWYRQAPGKEMEMVAGINWSGDGTYYADSVKGRFTISRDNAKNTVYLQMNSLKPEDTAVYYCNARGIPLYSYRDYRFVVLNFDYWGQGTQVTVSS | low polyreactivity
18 | QVQLVESGGGLVQAGGSLRLSCAASGITFGDYAMGWYRQAPGKERELVAAISKRGGSTYYADSVKGRFTISRDNAKNTVYLQMNSLKPEDTAVYYCAADYYINAYYYWGQGTQVTVSS | high polyreactivity
19 | QVQLVESGGGLVQAGGSLRLSCAASGITFGDYAMGWYRQAPGKERELVAAISKRGGSTYYAESVKGRFTISRDNAKNTVYLQMNSRNPEDTAVYYCAADYYSKAYYYWGQGTQVTVSS | high polyreactivity
20 | QVQLVESGGGLVQAGGSLRLSCAASGITFGGNAMGWYRQAPGKERELVAAISGRGGRTYYADSVKGRFTISRDTAKNTVYLQMNSLKPEDTAVYYCAGGGRVRYDYWGQGTQVTVSS | low polyreactivity
21 | QVQLVESGGGLVQAGGSLRLSCAASGITFGGYALGWYRQAPGKEREFVAGISSSGRSTYYADSVKGRFTISRDNAKNTVYLQMYSLKPEDTAVYYCAVYRVRKVYVLRGPFYYWGQGTQVTVSS | high polyreactivity
22 | QVQLVESGGGLVQAGGSLRLSCAASGITFGHYTMGWYRQAPGKERELVAAISWSGGSTYYADSVKGRFTISRDNAKNTVYLQMNSLKPEDTAVYYCNRVKPVIASYDSDYWGQGTQVTVSS | low polyreactivity

Row | Sequence | polyreactivity (PSR sort gate)
23 | QVQLVESGGGLVQAGGSLRLSCAASGITFGINAMGWYRQAPGKERELVAAITSGGSTYYADSVKGRFTISRDNAKNTVYLQMNSLKPEDTAVYDCAADYQYFVYCEYDYWGQGTQVTVSS | low polyreactivity
24 | QVQLVESGGGLVQAGGSLRLSCAASGITFGIYVMGWYRQAPGKERELVATISRSDDNTYYADSVKGRFTISRDNAKNTVYLQMNSLKPEDTAVYYCAADGVISAWYSSRDDYWGQGTQVTVSS | low polyreactivity
25 | QVQLVESGGGLVQAGGSLRLSCAASGITFGKNALGWYRQAPGKERELVATIRRSGGSTYADSVKGRFTISRDNAKNTVYLQMNSLKPEDTAVYYCNARSWNTYNYWGQGTQVTVSS | high polyreactivity
26 | QVQLVESGGGLVQAGGSLRLSCAASGITFGLYAMGWYRQAPGKEREFVAAISRRGGSTSYADSVKGRFTISRDNAKNTVYLQMNSLKPEDTAVYYCDTSYRRTVGGYTYYWGQGTQVTVSS | high polyreactivity
27 | QVQLVESGGGLVQAGGSLRLSCAASGITFGRNAMGWYRQAPGKERELVAAISRGGSTNYADSVKGRFTISRDNAKNTVYLQMNSLKPEDTAVYYCNARSWPHGSWIPIHRRYGYWGQGTQVTVSS | high polyreactivity
28 | QVQLVESGGGLVQAGGSLRLSCAASGITFGRNTMGWYRPAPGKERELVAAIDSGGNTYADSVKGRFTISRDNAKNTVYLQMNSLKPEDTAVYYCAVDGGEFSSYGYWGQGTQVTVSS | low polyreactivity
29 | QVQLVESGGGLVQAGGSLRLSCAASGITFGRYAMGWYSQAPGKARELVASITVNGGRTYYADSVKGRFTISRDNAKNTVNLQMNSLKPEDTAVSYCAAERRNSYVLLFKYNYWGQGTQVTVSS | low polyreactivity
30 | QVQLVESGGGLVQAGGSLRLSCAASGITFGSNAMGWYRQAPGKERELVAAISRSGGRTYYADSVKGRFTISRDNAKNTVSLQMNSLKPEDTAVYDCATDSYTTGEYWGQGTQVTVSS | high polyreactivity
31 | QVQLVESGGGLVQAGGSLRLSCAASGITFGSYAMGWYRQAPGKEREFVAAISLSGGNTYYADSVKGRFTISRDNAKNTVYLQMNSRKPEDTAVYYCAADYDYSGYGYWGQGTQVTVSS | high polyreactivity
32 | QVQLVESGGGLVQAGGSLRLSCAASGITFGTNAMGWYRQAPGKERELVAAITSGVSTYYADSVKGRFTISRDNAKNTVYLQMNSLIPEDTAVYYCAKDVAVYADLYQGDPYGYWGQGTLVTVSS | low polyreactivity
33 | QVQLVESGGGLVQAGGSLRLSCAASGITFGVNTMGWYRQAPGKERELVAAITWRGGSTYYADSVKGRFTISRDNAKNTVYLQMNSLKPEDTAVYYCAAPYDGPVLTVGYDYWGQGTQVTVSS | low polyreactivity
34 | QVQLVESGGGLVQAGGSLRLSCAASGITFGVNTMGWYRQAPGKERELVAAITWRGGSTYYADSVKGRFTISRDNAKNTVYLQMNSLKPEDTAVYYCAAVDFTREISGVTYGFDYCGQGTQVTVSS | low polyreactivity
35 | QVQLVESGGGLVQAGGSLRLSCAASGITFGYNTMGWYRQAPGKERELVAAISGSGGRTYYADSVKGRFTISRDNAKNTVFLQMNSLKPEDTAVYYCAARWPIWSSLYDYWGQGTQVTVSS | high polyreactivity
36 | QVQLVESGGGLVQAGGSLRLSCAASGITFGYYAMGRYRQAPGKERELVAAISNSGRTYYADSVKGRFTISRDNAKNTVYLQMNSLKPEDTAVYYCAVRISGNWYDYWGQGTQVTVSS | low polyreactivity
37 | QVQLVESGGGLVQAGGSLRLSCAASGITFGYYAMGWSRQAPGKERELVAAISSGGRTNYADSVKGRFTISRDNAKNTVYLQMISLKPEDTAVYYCAASTHHPGYPPDVLYDEYEYWGQGTQVTVSS | low polyreactivity
38 | QVQLVESGGGLVQAGGSLRLSCAASGITFGYYAMGWYRQAPGKERELVAAISNSGRTYYADSVKGRFTISRDNAKNTVYLQMNILKPEDTAVYYCAAEDAYYDFYYWGQGTKVTVSS | low polyreactivity
39 | QVQLVESGGGLVQAGGSLRLSCAASGITFHRNAMGWYRQAPGKERELVAAITRGGSTYYADSVKGRFTISRDNAKNTVYLQMNSLKPEDTAVYYCNAYYWFGPGRDYWGQGTQVTVSS | high polyreactivity
40 | QVQLVESGGGLVQAGGSLRLSCAASGITFHSYAMGWYRQAPGKERELVAGISSGGSTNYADSVKGRFTISRDNAKNTVYLQMNSLKPEDTAVYYCNADTPFYEYDYWGQGTQVTVSS | low polyreactivity
41 | QVQLVESGGGLVQAGGSLRLSCAASGITFIGYVMGWYRQAPGKERELVAAISRSGASTYYADSVKGRFTISRDNAKNTVYLQMNSLKPEDTAVYYSATVRYHPAYYYWGQGTQVTVSS | high polyreactivity
42 | QVQLVESGGGLVQAGGSLRLSCAASGITFIRNGMGWYRQAPGKERELVAAISDTGARTYYADSVKGRFTISRDNAKNTVYLQMNSLKPEDTAVYYCAAEVRTRYLYSFRWYDYWGQGTQVTVSS | low polyreactivity
43 | QVQLVESGGGLVQAGGSLRLSCAASGITFKPNTMGWYRQAPGKERELVAAIDWSGSSTYYADSVKGRFTISRDNAKNTVYLHMNSLKPEDTAVYYCAADEYEYFWSYDYWGQGTQVTVSS | low polyreactivity
